# In patent US20240200044, “EVOLUTION OF TALENS” (President and Fellows of Harvard College, published 2024):
# Columns and labels:
# omega-Zif268-DBD fusion = omega-Zif268-DBD fusion (Mus musculus, UniProt P08046 SEQ:103-190); experiment: one_hybrid; pIII-luciferase induction, site at -62, E. coli
# [1] = biological target: ATM-L-directed TALE-omega K59E (synthetic construct, K59E); experiment: one_hybrid; versus canonical ATM-L TALE; details: tags: N-terminal FLAG-NLS, C-terminal RNAP omega
Binder,binding signal (omega-Zif268-DBD fusion),binding signal [1]
Zif268 consensus site (dsDNA) DNA 1: GCGTGGGCG DNA 2: CGCCCACGC,≥ 10 fold,–
"ATM left half-site 5'A (dsDNA, [1 (T>A)]) DNA 1: AGAATTGGGATGCTGTTT DNA 2: AAACAGCATCCCAATTCT",–,2 fold increase
ATM left half-site on-target (dsDNA) DNA 1: TGAATTGGGATGCTGTTT DNA 2: AAACAGCATCCCAATTCA,–,1.5 fold increase
